Test results reported in paper PMC5606208.

Experiments:
[1] = target: WT HP1α (human heterochromatin protein 1 alpha, unmodified) (human); experiment: AUC
[2] = target: Phos-HP1α (HP1α co-expressed with CKII, phosphorylated in the N-terminus and hinge) (human); experiment: native MS

| Substance | Kd [1] [nM] | stoichiometry N [2] |
| --- | --- | --- |
| WT HP1α (human heterochromatin protein 1 alpha, unmodified) (natural protein) | 1120 |  |
| Phos-HP1α (HP1α co-expressed with CKII, phosphorylated in the N-terminus and hinge) (natural protein) |  | 2 |
